# Data: the supplement of paper PMC7877785
# ± gives the uncertainty stated by the source.
# Experiment: self-splicing fitness, log relative to wild type (ln ratio); higher = more splicing; Tetrahymena group I intron in knt gene, E. coli kanamycin selection, DiMSum; sequences stand for … in CUCUCU…GGAGGGAAAAGUUAUCAGGCAUGCACCUGGUAGCUAGUCUUUAAACCAAUAGAUUGCAUCGGUUUAAAAGGCAAGACCGUCAAAUUGCGGGAAAGGGGUCAACAGCCGUUCAGUACCAAGUCUCAGGGGAAACUUUGAGAUGGCCUUGCAAAGGGUAUGGUAAUAAGCUGACGGACAUGGUCCUAACCACGCAGCCAAGUCCUAAGUCAACAGAUCUUCUGUUGAUAUGGAUGCAGUUCACAGACUAAAUGUCGGUCGGGGAAGAUGUAUUCUUCUCAUAAGAUAUAGUCGGACCUCUCCUUAAUGGGAGCUAGCGGAUGAAGUGAUGCAACACUGGAGCCGCUGGGAACUAAUUUGUAUGCGAAAGUAUAUUGAUUAGUUUUGGAGUACUCGUGGUCG
# Summary of the method: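 A randomised library covering all eight P1ex-region intron nucleotides was built with the intron in the knt kanamycin-resistance gene on pET-22b(+) and held in E. coli BL21(DE3). Cells were grown overnight at 37°C or 30°C on LB agar, with or without 25 μg/mL kanamycin, plus 100 μg/mL carbenicillin, 50 μM IPTG and 0.2% rhamnose, and pooled colonies were amplicon-sequenced on an Illumina HiSeq 2500. DiMSum fitness is the error-weighted combination of wild-type-normalised replicate fold changes, kanamycin versus none.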
Sequence,self-splicing fitness (ln) (30 °C),self-splicing fitness (ln) (37 °C)
CGGGAGCAAUAUUACGGUCA,-3.17 ± 0.32,-1.93 ± 0.28
AGGAAGCAAUAUUACGAUCU,-0.809 ± 0.085,-0.905 ± 0.11
AGGAAGCAAUAUUACGUAGG,-3 ± 0.15,-2.3 ± 0.23
GACUAGCAAUAUUACGUGCG,-1.3 ± 0.073,-0.236 ± 0.091
UAAUAGCAAUAUUACGUCUC,-3.41 ± 0.26,
AUUCAGCAAUAUUACGCAGG,-1.26 ± 0.12,-0.594 ± 0.16
UCAUAGCAAUAUUACGAAAA,-2.62 ± 0.48,
ACUAAGCAAUAUUACGAUUA,-0.928 ± 0.12,-0.502 ± 0.1
CACAAGCAAUAUUACGCUGC,-5.23 ± 0.32,-2.87 ± 0.21
UUAAAGCAAUAUUACGAUAC,-1.57 ± 0.13,-0.384 ± 0.16
CUACAGCAAUAUUACGCUCG,-1.49 ± 0.089,-1.46 ± 0.13
ACCUAGCAAUAUUACGCACA,-0.931 ± 0.078,-0.476 ± 0.079
AACCAGCAAUAUUACGAGUC,-1.82 ± 0.1,-0.825 ± 0.11
CCUUAGCAAUAUUACGCCUU,-3.52 ± 0.32,-2.57 ± 0.24
CGUUAGCAAUAUUACGCGAU,-2.89 ± 0.16,-3.12 ± 0.32
UGCAAGCAAUAUUACGGACG,-0.345 ± 0.068,-0.0664 ± 0.087
UGUAAGCAAUAUUACGGGUC,-3.01 ± 0.41,
UUCGAGCAAUAUUACGUUCC,-2.94 ± 0.26,-1.19 ± 0.3

Sequence,self-splicing fitness (ln) (30 °C),self-splicing fitness (ln) (37 °C)
CUGGAGCAAUAUUACGGGAC,0.251 ± 0.35,-1.08 ± 0.41
GUUAAGCAAUAUUACGGCGC,0.441 ± 0.15,-0.509 ± 0.14
CCUCAGCAAUAUUACGCAAA,,-2.46 ± 0.3
UUUGAGCAAUAUUACGAUAC,-3.55 ± 0.48,
GAGUAGCAAUAUUACGCGUU,-2.44 ± 0.095,-0.8 ± 0.09
GCACAGCAAUAUUACGUUAG,-2.6 ± 0.091,-1.85 ± 0.11
UCGAAGCAAUAUUACGAGGC,,-2.15 ± 0.49
ACACAGCAAUAUUACGUAAG,-2.06 ± 0.062,-0.736 ± 0.069
CAAGAGCAAUAUUACGAAGA,-1.75 ± 0.35,-3.14 ± 0.43
GGACAGCAAUAUUACGAGUG,-3.32 ± 0.17,-1.79 ± 0.15
CAUGAGCAAUAUUACGCCUG,-2.93 ± 0.21,-2.02 ± 0.35
UCAUAGCAAUAUUACGAUGA,-2.65 ± 0.18,-0.815 ± 0.11
UUCCAGCAAUAUUACGGCUC,-2.48 ± 0.21,-0.924 ± 0.21
AAGGAGCAAUAUUACGUCGG,-3.13 ± 0.19,-2.74 ± 0.33
ACUUAGCAAUAUUACGCGCG,-1.56 ± 0.11,-0.437 ± 0.12
CCCAAGCAAUAUUACGGGGU,-3.46 ± 0.12,-2.35 ± 0.16
GUUUAGCAAUAUUACGGUAG,-3.53 ± 0.29,-1.72 ± 0.19
